The chains are these.
B1: Gamma-crystallin S, residues 96 to 176; numbered along this chain, P22914 (parent)
chain: IQIFEKGDFSGQMYETTEDCPSIMEQFHMREIHSCKVLEGVWIFYELPNYRGRQYLLDKKEYRKPIDWGAASPAVQSFRRI

± gives the uncertainty stated by the source.

The variants in this data set derive from B1. The experiment in a line: abundance fitness (aPCA) (normalised: wild type 0, dead -1); higher = more abundant; growth selection in yeast, the domain comes from the species named. The settings on record: Homo sapiens.
IQIFEKGDFSGQMYETTEDCPSIMEQFHMREIHSCKVLEGVWIFYELPDYRGRQYLLDKKEYRKPIDWGAASPAVQSFRRI: the abundance fitness came to 0.004 ± 0.047. Next, IQIFEKGDFSGQMYETTEDCPSIMEQFHMREIHSCKVLEGVWIFYELPAYRGRQYLLDKKEYRKPIDWGAASPAVQSFRRI: -0.018 ± 0.029. Next, IQIFEKGDFSGQMYETTEDCPSIMEQFHMREIHSCKVLEGVWIFYELPVYRGRQYLLDKKEYRKPIDWGAASPAVQSFRRI: -0.198 ± 0.028; IQIFEKGDFSGQMYETTEDCPSIMEQFHMREIHSCKVLEGVWIFYELPMYRGRQYLLDKKEYRKPIDWGAASPAVQSFRRI: -0.001 ± 0.04; IQIFEKGDFSGQMYETTEDCPSIMEQFHMREIHSCKVLEGVWIFYELPFYRGRQYLLDKKEYRKPIDWGAASPAVQSFRRI: -0.009 ± 0.052. Take IQIFEKGDFSGQMYETTEDCPSIMEQFHMREIHSCKVLEGVWIFYELPRYRGRQYLLDKKEYRKPIDWGAASPAVQSFRRI: the abundance fitness was -0.07 ± 0.027. Next, IQIFEKGDFSGQMYETTEDCPSIMEQFHMREIHSCKVLEGVWIFYELPHYRGRQYLLDKKEYRKPIDWGAASPAVQSFRRI: -0.004 ± 0.057; IQIFEKGDFSGQMYETTEDCPSIMEQFHMREIHSCKVLEGVWIFYELPEYRGRQYLLDKKEYRKPIDWGAASPAVQSFRRI: 0.021 ± 0.033. Next, IQIFEKGDFSGQMYETTEDCPSIMEQFHMREIHSCKVLEGVWIFYELPGYRGRQYLLDKKEYRKPIDWGAASPAVQSFRRI: 0.011 ± 0.023; IQIFEKGDFSGQMYETTEDCPSIMEQFHMREIHSCKVLEGVWIFYELPLYRGRQYLLDKKEYRKPIDWGAASPAVQSFRRI: -0.063 ± 0.028; IQIFEKGDFSGQMYETTEDCPSIMEQFHMREIHSCKVLEGVWIFYELPPYRGRQYLLDKKEYRKPIDWGAASPAVQSFRRI: -0.591 ± 0.069. Consider IQIFEKGDFSGQMYETTEDCPSIMEQFHMREIHSCKVLEGVWIFYELPYYRGRQYLLDKKEYRKPIDWGAASPAVQSFRRI, for which the abundance fitness was -0.044 ± 0.063. IQIFEKGDFSGQMYETTEDCPSIMEQFHMREIHSCKVLEGVWIFYELPKYRGRQYLLDKKEYRKPIDWGAASPAVQSFRRI: the abundance fitness is -0.04 ± 0.045. IQIFEKGDFSGQMYETTEDCPSIMEQFHMREIHSCKVLEGVWIFYELPWYRGRQYLLDKKEYRKPIDWGAASPAVQSFRRI: the abundance fitness stood at 0.004 ± 0.033. Next, IQIFEKGDFSGQMYETTEDCPSIMEQFHMREIHSCKVLEGVWIFYELPTYRGRQYLLDKKEYRKPIDWGAASPAVQSFRRI: -0.167 ± 0.047; IQIFEKGDFSGQMYETTEDCPSIMEQFHMREIHSCKVLEGVWIFYELPCYRGRQYLLDKKEYRKPIDWGAASPAVQSFRRI: -0.078 ± 0.049; IQIFEKGDFSGQMYETTEDCPSIMEQFHMREIHSCKVLEGVWIFYELPNWRGRQYLLDKKEYRKPIDWGAASPAVQSFRRI: -0.036 ± 0.041. Next, IQIFEKGDFSGQMYETTEDCPSIMEQFHMREIHSCKVLEGVWIFYELPNTRGRQYLLDKKEYRKPIDWGAASPAVQSFRRI: -0.949 ± 0.081; IQIFEKGDFSGQMYETTEDCPSIMEQFHMREIHSCKVLEGVWIFYELPNDRGRQYLLDKKEYRKPIDWGAASPAVQSFRRI: -0.823 ± 0.077. Turning to IQIFEKGDFSGQMYETTEDCPSIMEQFHMREIHSCKVLEGVWIFYELPNFRGRQYLLDKKEYRKPIDWGAASPAVQSFRRI, the abundance fitness is -0.002 ± 0.045. Next, IQIFEKGDFSGQMYETTEDCPSIMEQFHMREIHSCKVLEGVWIFYELPNLRGRQYLLDKKEYRKPIDWGAASPAVQSFRRI: -0.351 ± 0.03; IQIFEKGDFSGQMYETTEDCPSIMEQFHMREIHSCKVLEGVWIFYELPNVRGRQYLLDKKEYRKPIDWGAASPAVQSFRRI: -1.02 ± 0.056.

Take IQIFEKGDFSGQMYETTEDCPSIMEQFHMREIHSCKVLEGVWIFYELPNARGRQYLLDKKEYRKPIDWGAASPAVQSFRRI: the abundance fitness is -0.576 ± 0.03. Next, IQIFEKGDFSGQMYETTEDCPSIMEQFHMREIHSCKVLEGVWIFYELPNIRGRQYLLDKKEYRKPIDWGAASPAVQSFRRI: -0.851 ± 0.12; IQIFEKGDFSGQMYETTEDCPSIMEQFHMREIHSCKVLEGVWIFYELPNQRGRQYLLDKKEYRKPIDWGAASPAVQSFRRI: -0.356 ± 0.047. Next, IQIFEKGDFSGQMYETTEDCPSIMEQFHMREIHSCKVLEGVWIFYELPNSRGRQYLLDKKEYRKPIDWGAASPAVQSFRRI: -0.705 ± 0.041. As to IQIFEKGDFSGQMYETTEDCPSIMEQFHMREIHSCKVLEGVWIFYELPNGRGRQYLLDKKEYRKPIDWGAASPAVQSFRRI, the abundance fitness was -0.421 ± 0.028. Next, IQIFEKGDFSGQMYETTEDCPSIMEQFHMREIHSCKVLEGVWIFYELPNPRGRQYLLDKKEYRKPIDWGAASPAVQSFRRI: -1.14 ± 0.11; IQIFEKGDFSGQMYETTEDCPSIMEQFHMREIHSCKVLEGVWIFYELPNRRGRQYLLDKKEYRKPIDWGAASPAVQSFRRI: -0.685 ± 0.033; IQIFEKGDFSGQMYETTEDCPSIMEQFHMREIHSCKVLEGVWIFYELPNERGRQYLLDKKEYRKPIDWGAASPAVQSFRRI: -0.559 ± 0.03. On to IQIFEKGDFSGQMYETTEDCPSIMEQFHMREIHSCKVLEGVWIFYELPNKRGRQYLLDKKEYRKPIDWGAASPAVQSFRRI, for which the abundance fitness is -0.884 ± 0.09. IQIFEKGDFSGQMYETTEDCPSIMEQFHMREIHSCKVLEGVWIFYELPNCRGRQYLLDKKEYRKPIDWGAASPAVQSFRRI: the abundance fitness was -0.047 ± 0.047. As for IQIFEKGDFSGQMYETTEDCPSIMEQFHMREIHSCKVLEGVWIFYELPNHRGRQYLLDKKEYRKPIDWGAASPAVQSFRRI, the abundance fitness was -0.102 ± 0.051. In the case of IQIFEKGDFSGQMYETTEDCPSIMEQFHMREIHSCKVLEGVWIFYELPNNRGRQYLLDKKEYRKPIDWGAASPAVQSFRRI, the abundance fitness is -0.567 ± 0.087. As to IQIFEKGDFSGQMYETTEDCPSIMEQFHMREIHSCKVLEGVWIFYELPNMRGRQYLLDKKEYRKPIDWGAASPAVQSFRRI, the abundance fitness was -0.072 ± 0.045. Take IQIFEKGDFSGQMYETTEDCPSIMEQFHMREIHSCKVLEGVWIFYELPNYEGRQYLLDKKEYRKPIDWGAASPAVQSFRRI: the abundance fitness amounted to 0.037 ± 0.072.

On to IQIFEKGDFSGQMYETTEDCPSIMEQFHMREIHSCKVLEGVWIFYELPNYLGRQYLLDKKEYRKPIDWGAASPAVQSFRRI, for which the abundance fitness was -0.019 ± 0.044. For IQIFEKGDFSGQMYETTEDCPSIMEQFHMREIHSCKVLEGVWIFYELPNYNGRQYLLDKKEYRKPIDWGAASPAVQSFRRI, the abundance fitness is -0.264 ± 0.19. Next, IQIFEKGDFSGQMYETTEDCPSIMEQFHMREIHSCKVLEGVWIFYELPNYGGRQYLLDKKEYRKPIDWGAASPAVQSFRRI: 0.062 ± 0.035; IQIFEKGDFSGQMYETTEDCPSIMEQFHMREIHSCKVLEGVWIFYELPNYMGRQYLLDKKEYRKPIDWGAASPAVQSFRRI: 0.049 ± 0.077. IQIFEKGDFSGQMYETTEDCPSIMEQFHMREIHSCKVLEGVWIFYELPNYHGRQYLLDKKEYRKPIDWGAASPAVQSFRRI: the abundance fitness worked out at 0.013 ± 0.1. As to IQIFEKGDFSGQMYETTEDCPSIMEQFHMREIHSCKVLEGVWIFYELPNYKGRQYLLDKKEYRKPIDWGAASPAVQSFRRI, the abundance fitness was determined as 0.008 ± 0.082. As for IQIFEKGDFSGQMYETTEDCPSIMEQFHMREIHSCKVLEGVWIFYELPNYAGRQYLLDKKEYRKPIDWGAASPAVQSFRRI, the abundance fitness is -0.004 ± 0.057. With IQIFEKGDFSGQMYETTEDCPSIMEQFHMREIHSCKVLEGVWIFYELPNYDGRQYLLDKKEYRKPIDWGAASPAVQSFRRI, the abundance fitness was found to be 0 ± 0.11. As for IQIFEKGDFSGQMYETTEDCPSIMEQFHMREIHSCKVLEGVWIFYELPNYIGRQYLLDKKEYRKPIDWGAASPAVQSFRRI, the abundance fitness is -0.04 ± 0.083. With IQIFEKGDFSGQMYETTEDCPSIMEQFHMREIHSCKVLEGVWIFYEWPNYRGRQYLLDKKEYRKPIDWGAASPAVQSFRRI, the abundance fitness was -0.078 ± 0.049.

Take IQIFEKGDFSGQMYETTEDCPSIMEQFHMREIHSCKVLEGVWIFYETPNYRGRQYLLDKKEYRKPIDWGAASPAVQSFRRI: the abundance fitness was -0.285 ± 0.1. Consider IQIFEKGDFSGQMYETTEDCPSIMEQFHMREIHSCKVLEGVWIFYEVPNYRGRQYLLDKKEYRKPIDWGAASPAVQSFRRI, for which the abundance fitness was -0.667 ± 0.071. As for IQIFEKGDFSGQMYETTEDCPSIMEQFHMREIHSCKVLEGVWIFYEYPNYRGRQYLLDKKEYRKPIDWGAASPAVQSFRRI, the abundance fitness came out at 0.019 ± 0.15. Next, IQIFEKGDFSGQMYETTEDCPSIMEQFHMREIHSCKVLEGVWIFYELMNYRGRQYLLDKKEYRKPIDWGAASPAVQSFRRI: -0.193 ± 0.099; IQIFEKGDFSGQMYETTEDCPSIMEQFHMREIHSCKVLEGVWIFYELENYRGRQYLLDKKEYRKPIDWGAASPAVQSFRRI: -0.068 ± 0.089. Consider IQIFEKGDFSGQMYETTEDCPSIMEQFHMREIHSCKVLEGVWIFYELWNYRGRQYLLDKKEYRKPIDWGAASPAVQSFRRI, for which the abundance fitness was -0.712 ± 0.12.

As to IQIFEKGDFSGQMYETTEDCPSIMEQFHMREIHSCKVLEGVWIFYELFNYRGRQYLLDKKEYRKPIDWGAASPAVQSFRRI, the abundance fitness is -0.388 ± 0.17. Next, IQIFEKGDFSGQMYETTEDCPSIMEQFHMREIHSCKVLEGVWIFYELGNYRGRQYLLDKKEYRKPIDWGAASPAVQSFRRI: -0.147 ± 0.058; IQIFEKGDFSGQMYETTEDCPSIMEQFHMREIHSCKVLEGVWIFYELINYRGRQYLLDKKEYRKPIDWGAASPAVQSFRRI: -0.23 ± 0.092. Next, IQIFEKGDFSGQMYETTEDCPSIMEQFHMREIHSCKVLEGVWIFYELVNYRGRQYLLDKKEYRKPIDWGAASPAVQSFRRI: -0.104 ± 0.049; IQIFEKGDFSGQMYETTEDCPSIMEQFHMREIHSCKVLEGVWIFYELYNYRGRQYLLDKKEYRKPIDWGAASPAVQSFRRI: -0.23 ± 0.12. As for IQIFEKGDFSGQMYETTEDCPSIMEQFHMREIHSCKVLEGVWIFYELKNYRGRQYLLDKKEYRKPIDWGAASPAVQSFRRI, the abundance fitness came to 0.006 ± 0.089.

IQIFEKGDFSGQMYETTEDCPSIMEQFHMREIHSCKVLEGVWIFYELTNYRGRQYLLDKKEYRKPIDWGAASPAVQSFRRI: the abundance fitness worked out at 0.002 ± 0.081. Next, IQIFEKGDFSGQMYETTEDCPSIMEQFHMREIHSCKVLEGVWIFYELNNYRGRQYLLDKKEYRKPIDWGAASPAVQSFRRI: -0.096 ± 0.17; IQIFEKGDFSGQMYETTEDCPSIMEQFHMREIHSCKVLEGVWIFYELLNYRGRQYLLDKKEYRKPIDWGAASPAVQSFRRI: -0.32 ± 0.056; IQIFEKGDFSGQMYETTEDCPSIMEQFHMREIHSCKVLEGVWIFYELHNYRGRQYLLDKKEYRKPIDWGAASPAVQSFRRI: -0.236 ± 0.14.

As to IQIFEKGDFSGQMYETTEDCPSIMEQFHMREIHSCKVLEGVWIFYELCNYRGRQYLLDKKEYRKPIDWGAASPAVQSFRRI, the abundance fitness was -0.129 ± 0.13. Next, IQIFEKGDFSGQMYETTEDCPSIMEQFHMREIHSCKVLEGVWIFYELQNYRGRQYLLDKKEYRKPIDWGAASPAVQSFRRI: -0.011 ± 0.097; IQIFEKGDFSGQMYETTEDCPSIMEQFHMREIHSCKVLEGVWIFYELANYRGRQYLLDKKEYRKPIDWGAASPAVQSFRRI: -0.027 ± 0.062; IQIFEKGDFSGQMYETTEDCPSIMEQFHMREIHSCKVLEGVWIFYELRNYRGRQYLLDKKEYRKPIDWGAASPAVQSFRRI: -0.067 ± 0.045. As to IQIFEKGDFSGQMYETTEDCPSIMEQFHMREIHSCKVLEGVWIFYELSNYRGRQYLLDKKEYRKPIDWGAASPAVQSFRRI, the abundance fitness is -0.1 ± 0.066. With IQIFEKGDFSGQMYETTEDCPSIMEQFHMREIHSCKVLEGVWIFYELDNYRGRQYLLDKKEYRKPIDWGAASPAVQSFRRI, the abundance fitness was -0.038 ± 0.12.
